{"source": "patent US20080187543A1", "molecular_target": "Recombinant myostatin", "test": "cell-based or functional assay", "data": [{"substance": "350 protein (amino acids 267-350 of bovine myostatin) (from UniProt O18836 267-350)", "values": [{"measurement": "macrophage migration towards ZAMS medium (Boyden-type chemotaxis chamber), 5 µg/ml myostatin with 350 protein at 10 and 25 µg/ml", "value": 20, "unit": "fold"}]}]}
